Results reported in article PMC4641749 (Molecular microbiology, 2015).
Where a chain is given by its changes, count along the chain named. In names and notes the source's numbering stands. Read-outs that look alike come from different tables or passages of the source.

B1: FtsZ (wild type, Escherichia coli) (natural protein, E. coli, UniProt P0A9A6 1-383, looked up)
chain: MFEPMELTNDAVIKVIGVGGGGGNAVEHMVRERIEGVEFFAVNTDAQALRKTAVGQTIQIGSGITKGLGAGANPEVGRNAADEDRDALRAALEGADMVFIAAGMGGGTGTGAAPVVAEVAKDLGILTVAVVTKPFNFEGKKRMAFAEQGITELSKHVDSLITIPNDKLLKVLGRGISLLDAFGAANDVLKGAVQGIAELITRPGLMNVDFADVRTVMSEMGYAMMGSGVASGEDRAEEAAEMAISSPLLEDIDLSGARGVLVNITAGFDLRLDEFETVGNTIRAFASDNATVVIGTSLDPDMNDELRVTVVATGIGMDKRPEITLVTNKQVQQPVMDRYQQHGMAPLTQEQKPVAKVVNDNAPQTAKEPDYLDIPAFLRKQAD
B2: FtsZ_(L169R) (Escherichia coli FtsZ with the L169R lesion) (natural protein, E. coli, UniProt P0A9A6 1-383, looked up)
chain: B1 chain with L169R

How the values were obtained:
[1] = target: the molecule itself; experiment: sedimentation assay of polymers
[2] = target: the molecule itself; experiment: sedimentation assay of polymers; remark: listed apart in the source

Protein	binding result [1]	binding result [2]
B1	binds	–
B2	–	binds
